Experimental data reported in patent publication US20190359653A1 (Genentech, published 2019).
Ends that are not written are not given here.

T1: hFZD5 CRD-Fc (human, UniProt Q13467 27-167, limits assumed)
T1 construct: domain: CRD; bought (R&D Systems); not shown: Fc part
T1 sequence (looked up): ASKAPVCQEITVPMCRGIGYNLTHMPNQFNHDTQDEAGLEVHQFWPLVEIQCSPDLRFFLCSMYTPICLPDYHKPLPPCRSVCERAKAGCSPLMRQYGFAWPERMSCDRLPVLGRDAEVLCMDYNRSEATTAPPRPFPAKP

T2: mFZD9 CRD-Fc (mouse, UniProt Q9R216 24-176, limits assumed)
T2 construct: domain: CRD; bought (R&D Systems); not shown: Fc part
T2 sequence (looked up): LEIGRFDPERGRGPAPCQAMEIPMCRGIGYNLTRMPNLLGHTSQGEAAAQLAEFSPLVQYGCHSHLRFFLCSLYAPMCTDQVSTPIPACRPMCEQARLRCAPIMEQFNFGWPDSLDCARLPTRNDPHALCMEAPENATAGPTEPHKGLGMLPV

T3: hFZD8 CRD-Fc (human, UniProt Q9H461 28-158, limits assumed)
T3 construct: domain: CRD; bought (R&D Systems); not shown: Fc part
T3 sequence (looked up): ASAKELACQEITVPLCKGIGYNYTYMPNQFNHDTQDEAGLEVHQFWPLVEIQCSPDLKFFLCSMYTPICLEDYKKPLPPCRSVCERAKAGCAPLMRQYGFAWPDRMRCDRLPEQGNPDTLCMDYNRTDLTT

T4: hFZD4 CRD-Fc (human, UniProt Q9ULV1 37-180, limits assumed)
T4 construct: domain: CRD; bought (R&D Systems); not shown: Fc part
T4 sequence (looked up): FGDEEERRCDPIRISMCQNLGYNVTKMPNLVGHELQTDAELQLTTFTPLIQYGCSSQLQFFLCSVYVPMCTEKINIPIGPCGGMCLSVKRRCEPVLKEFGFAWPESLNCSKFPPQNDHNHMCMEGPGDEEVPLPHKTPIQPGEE

T5: hFZD10 CRD-Fc (human, UniProt Q9ULW2 21-161, limits assumed)
T5 construct: domain: CRD; bought (R&D Systems); not shown: Fc part
T5 sequence (looked up): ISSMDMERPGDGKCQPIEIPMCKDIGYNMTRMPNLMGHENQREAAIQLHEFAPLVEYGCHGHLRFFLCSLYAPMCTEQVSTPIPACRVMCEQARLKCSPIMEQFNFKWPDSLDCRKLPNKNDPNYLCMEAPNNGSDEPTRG

T6: hsFRP-5 (human, UniProt Q5T4F7 30-317)
T6 construct: bought (R&D Systems); also called human sFRP5
T6 sequence (looked up): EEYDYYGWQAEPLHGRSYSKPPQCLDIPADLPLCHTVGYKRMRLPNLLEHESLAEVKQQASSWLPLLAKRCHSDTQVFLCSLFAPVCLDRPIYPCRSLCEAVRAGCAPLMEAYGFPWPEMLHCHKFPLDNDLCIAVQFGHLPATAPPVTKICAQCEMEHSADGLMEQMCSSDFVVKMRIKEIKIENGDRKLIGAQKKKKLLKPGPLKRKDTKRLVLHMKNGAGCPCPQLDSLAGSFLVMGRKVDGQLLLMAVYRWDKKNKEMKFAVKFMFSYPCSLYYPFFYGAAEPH

T7: hsFRP-4 (human, UniProt Q6FHJ7 22-346, limits assumed)
T7 construct: bought (R&D Systems); also called human sFRP4
T7 sequence (looked up): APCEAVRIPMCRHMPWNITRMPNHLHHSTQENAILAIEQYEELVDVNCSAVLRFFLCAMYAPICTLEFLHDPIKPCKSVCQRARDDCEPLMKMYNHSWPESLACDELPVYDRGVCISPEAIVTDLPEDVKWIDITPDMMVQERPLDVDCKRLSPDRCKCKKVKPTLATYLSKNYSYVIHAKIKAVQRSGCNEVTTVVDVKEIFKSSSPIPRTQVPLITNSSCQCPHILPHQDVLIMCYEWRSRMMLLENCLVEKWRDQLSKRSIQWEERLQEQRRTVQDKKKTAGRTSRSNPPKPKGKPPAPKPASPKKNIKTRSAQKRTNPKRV

T8: hsFRP2 (human, UniProt Q96HF1 25-295)
T8 construct: bought (R&D Systems); also called human sFRP2
T8 sequence (looked up): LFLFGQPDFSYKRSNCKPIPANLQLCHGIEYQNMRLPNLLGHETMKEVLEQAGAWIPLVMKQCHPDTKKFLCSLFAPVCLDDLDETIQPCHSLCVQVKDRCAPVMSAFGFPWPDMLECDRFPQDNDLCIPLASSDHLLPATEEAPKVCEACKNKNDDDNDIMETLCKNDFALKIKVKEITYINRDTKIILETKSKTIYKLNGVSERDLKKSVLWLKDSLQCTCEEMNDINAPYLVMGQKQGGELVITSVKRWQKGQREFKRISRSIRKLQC

T9: hsFRP-3 (human, UniProt Q92765 33-325)
T9 construct: bought (R&D Systems); also called human sFRP3
T9 sequence (looked up): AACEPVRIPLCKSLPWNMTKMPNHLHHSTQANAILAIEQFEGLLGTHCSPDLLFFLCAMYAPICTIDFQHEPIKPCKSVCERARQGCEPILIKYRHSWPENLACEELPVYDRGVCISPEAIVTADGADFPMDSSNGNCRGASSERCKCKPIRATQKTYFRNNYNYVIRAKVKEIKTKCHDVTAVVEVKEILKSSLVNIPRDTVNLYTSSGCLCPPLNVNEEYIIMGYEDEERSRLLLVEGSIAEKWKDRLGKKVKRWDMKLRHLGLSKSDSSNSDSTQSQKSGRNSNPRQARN

T10: hsFRP1 (human, UniProt Q8N474 32-314)
T10 construct: bought (R&D Systems); also called human sFRP1
T10 sequence (looked up): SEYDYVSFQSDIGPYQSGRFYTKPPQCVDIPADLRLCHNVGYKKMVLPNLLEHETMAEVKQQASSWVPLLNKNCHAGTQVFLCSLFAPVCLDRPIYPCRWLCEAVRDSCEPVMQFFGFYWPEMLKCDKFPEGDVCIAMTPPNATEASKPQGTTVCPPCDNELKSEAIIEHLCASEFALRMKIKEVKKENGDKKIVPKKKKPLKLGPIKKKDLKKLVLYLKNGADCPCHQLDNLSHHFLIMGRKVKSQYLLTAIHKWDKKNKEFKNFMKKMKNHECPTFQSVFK


Experiments:
[1] = target: T11, hFZD1 CRD-Fc (human, UniProt Q9UP38 70-250, limits assumed); experiment: fluorescence titration, 50 nM labelled peptide vs FZD CRD-Fc dilutions (Monolith NT.115)
T11 construct: domain: CRD; bought (R&D Systems); not shown: Fc part
T11 sequence (Q9UP38 70-250 limits assumed): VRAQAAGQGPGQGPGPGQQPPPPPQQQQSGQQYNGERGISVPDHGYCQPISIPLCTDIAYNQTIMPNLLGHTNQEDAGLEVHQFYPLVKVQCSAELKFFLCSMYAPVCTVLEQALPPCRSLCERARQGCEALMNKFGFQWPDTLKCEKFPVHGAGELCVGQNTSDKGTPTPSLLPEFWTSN

[2] = target: T12, mFZD7 CRD-Fc (mouse, UniProt Q61090 33-185); experiment: as above
[3] = target: T13, mFZD2 CRD-Fc (mouse, UniProt Q9JIP6 29-178, limits assumed); experiment: as above
T13 construct: domain: CRD; bought (R&D Systems); not shown: Fc part

[4] = target: T14, hFZD7 CRD-Fc (human, UniProt O75084 33-185); experiment: as above
[5] = target: T1, hFZD5 CRD-Fc; experiment: fluorescence titration, 50 nM labelled peptide vs FZD CRD-Fc dilutions (Monolith NT.115); NC = no change
[6] = target: T2, mFZD9 CRD-Fc; experiment: as above
[7] = target: T3, hFZD8 CRD-Fc; experiment: as above
[8] = target: T4, hFZD4 CRD-Fc; experiment: as above
[9] = target: T5, hFZD10 CRD-Fc; experiment: as above
[10] = target: T6, hsFRP-5; experiment: fluorescence size-exclusion chromatography (FSEC)
[11] = target: T7, hsFRP-4; experiment: fluorescence size-exclusion chromatography (FSEC)
[12] = target: T8, hsFRP2; experiment: fluorescence size-exclusion chromatography (FSEC)
[13] = target: T9, hsFRP-3; experiment: fluorescence size-exclusion chromatography (FSEC)
[14] = target: T10, hsFRP1; experiment: fluorescence size-exclusion chromatography (FSEC)
[15] = target: T12, mFZD7 CRD-Fc; experiment: fluorescence titration, 50 nM labelled peptide vs FZD CRD-Fc dilutions (Monolith NT.115); NC = no change
[16] = target: T13, mFZD2 CRD-Fc; experiment: as above
[17] = target: T14, hFZD7 CRD-Fc; experiment: as above

Row | EC50 [1] [nM] | EC50 [2] [nM] | EC50 [3] [nM] | EC50 [4] [nM] | binding result [5] | binding result [6] | binding result [7] | binding result [8] | binding result [9] | binding result [15] | binding result [16] | binding result [17] | Binder | binding result [10] | binding result [11] | binding result [12] | binding result [13] | binding result [14]
1 | 39 | 67 | 60 | 116 | no binding | no binding | no binding | no binding | no binding |  |  |  | LPSDDLEFWCHVMY-NH2 (also: 5-carboxyfluorescein (5FAM) label, site not given here, synthetic) [5FAM-Fz7-21] | no binding (tested: 10 µM peptide, ~250 nM sFRP) | no binding (tested: 10 µM peptide, ~250 nM sFRP) | no binding (tested: 10 µM peptide, ~250 nM sFRP) | no binding (tested: 10 µM peptide, ~250 nM sFRP) | no binding (tested: 10 µM peptide, ~250 nM sFRP)
2 |  |  |  |  | no binding | no binding | no binding | no binding | no binding | no binding | no binding | no binding | LPSDDLEFWSHVMY-NH2 (also: 5-carboxyfluorescein (5FAM) label, site not given here, synthetic control peptide (C10S)) [5FAM-Fz7-21S] | no binding (tested: 10 µM peptide, ~250 nM sFRP) | no binding (tested: 10 µM peptide, ~250 nM sFRP) | no binding (tested: 10 µM peptide, ~250 nM sFRP) | no binding (tested: 10 µM peptide, ~250 nM sFRP) | no binding (tested: 10 µM peptide, ~250 nM sFRP)
